From patent US20260055183A1

Biological target: triggering receptor expressed on myeloid cells 1 (TREM-1), human, on monocytes / PBMCs of healthy donors (human) (UniProt Q9NP99)
Assay: cell-based or functional assay

Sequence of peptidoglycan-recognition-protein 1 (PGLYRP1) (O75594 22-196 limits assumed): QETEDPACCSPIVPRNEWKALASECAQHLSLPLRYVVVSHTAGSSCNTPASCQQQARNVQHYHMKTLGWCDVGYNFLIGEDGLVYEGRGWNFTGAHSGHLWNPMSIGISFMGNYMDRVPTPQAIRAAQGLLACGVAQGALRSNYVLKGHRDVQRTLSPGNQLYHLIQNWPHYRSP
Sequence of triggering receptor expressed on myeloid cells 1 (TREM-1), human, on monocytes / PBMCs of healthy donors (human) (Q9NP99 21-234 limits assumed): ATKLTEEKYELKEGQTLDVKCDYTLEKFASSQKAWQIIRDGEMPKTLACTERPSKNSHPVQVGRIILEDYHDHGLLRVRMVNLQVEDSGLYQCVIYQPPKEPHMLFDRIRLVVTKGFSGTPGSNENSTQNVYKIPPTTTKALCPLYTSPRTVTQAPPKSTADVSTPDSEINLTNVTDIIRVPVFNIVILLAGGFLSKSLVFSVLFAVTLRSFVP

Log2FC P + L vs P, ACOT7 mRNA in monocytes (log2 fold change): 2.23 | Log2FC P + L vs P, CD52 mRNA in monocytes (log2 fold change): 2.28 | Log2FC P + L vs P, CD55 mRNA in monocytes (log2 fold change): 2.39 | Log2FC P + L vs P, CDKN1A mRNA in monocytes (log2 fold change): 2.3 | Log2FC P + L vs P, CHI3L1 mRNA in monocytes (log2 fold change): 5.62 | Log2FC P + L vs P, CISH mRNA in monocytes (log2 fold change): 3.28 | Log2FC P + L vs P, CLEC12A mRNA in monocytes (log2 fold change): 2.94 | Log2FC P + L vs P, DHRS9 mRNA in monocytes (log2 fold change): 3.22 | Log2FC P + L vs P, EHD1 mRNA in monocytes (log2 fold change): 3.37 | Log2FC P + L vs P, FAM129A mRNA in monocytes (log2 fold change): 2.31 | Log2FC P + L vs P, GALNT6 mRNA in monocytes (log2 fold change): 2.09 | Log2FC P + L vs P, IFNLR1 mRNA in monocytes (log2 fold change): 3.07 | Log2FC P + L vs P, MFSD12 mRNA in monocytes (log2 fold change): 3.07 | Log2FC P + L vs P, MTMR11 mRNA in monocytes (log2 fold change): 2.58 | Log2FC P + L vs P, NAMPT mRNA in monocytes (log2 fold change): 3.47 | Log2FC P + L vs P, PIM2 mRNA in monocytes (log2 fold change): 2.71 | Log2FC P + L vs P, PLK3 mRNA in monocytes (log2 fold change): 2.67 | Log2FC P + L vs P, SLC27A3 mRNA in monocytes (log2 fold change): 2.74 | Log2FC P + L vs P, STARD4 mRNA in monocytes (log2 fold change): 2.56 | Log2Fc.P + L vs P, CCL1 mRNA in monocytes (log2 fold change): 8.39 | Log2Fc.P + L vs P, CCL20 mRNA in monocytes (log2 fold change): 8.73 | Log2Fc.P + L vs P, CXCL3 mRNA in monocytes (log2 fold change): 7.21 | Log2Fc.P + L vs P, F3 mRNA in monocytes (log2 fold change): 7.55 | Log2Fc.P + L vs P, IL6 mRNA in monocytes (log2 fold change): 9.16 | Log2Fc.P + L vs P, IL23A mRNA in monocytes (log2 fold change): 6.96 | Log2Fc.P + L vs P, IL24 mRNA in monocytes (log2 fold change): 6.66 | Log2Fc.P + L vs P, IL36G mRNA in monocytes (log2 fold change): 7.91 | Log2Fc.P + L vs P, ILIA (Interleukin 1, alpha) mRNA in monocytes (log2 fold change): 6.86 | Log2Fc.P + L vs P, ILIRN (Interleukin 1 receptor antagonist) mRNA in monocytes (log2 fold change): 7.28 | Log2Fc.P + L vs P, INHBA mRNA in monocytes (log2 fold change): 8.04 | Log2Fc.P + L vs P, MMP1 mRNA in monocytes (log2 fold change): 9.31 | Log2Fc.P + L vs P, MMP7 mRNA in monocytes (log2 fold change): 8.32 | Log2Fc.P + L vs P, MMP10 mRNA in monocytes (log2 fold change): 8.47 | Log2Fc.P + L vs P, OCSTAMP mRNA in monocytes (log2 fold change): 7.62 | Log2Fc.P + L vs P, PTGS2 mRNA in monocytes (log2 fold change): 8.32 | Log2Fc.P + L vs P, RGS16 mRNA in monocytes (log2 fold change): 7.52 | Log2Fc.P + L vs P, SCG5 mRNA in monocytes (log2 fold change): 8.09 | Log2Fc.P + L vs P, TFPI2 mRNA in monocytes (log2 fold change): 7.57 | Log2Fc.P + L vs P, TNFSF15 mRNA in monocytes (log2 fold change): 8.65
Substance: peptidoglycan-recognition-protein 1 (PGLYRP1) (from UniProt O75594 22-196) (ligand)
